Consider one molecule from patent US20190330315A1 (IMAGO PHARMACEUTICALS, published 2019).

For the assay, the target named is T1, Peptide 2: α-synuclein amino acids 108-117 (10 amino acids) PQEGILEDMP (human, also: biotin, position not given here).
T1 construct: Biotinylated peptide loaded on streptavidin biosensors
T1 peptide: PQEGILEDMP
The experiment in a line: BLI (ForteBio Octet Red96), biotinylated peptide on streptavidin biosensors, IGP101 at multiple concentrations. The procedure:
The binding of IGP101 to two biotinylated α-synuclein peptides (SEQ ID NO:10 and SEQ ID NO:11) was determined using the Streptavidin biosensors. Biotinylated peptides were loaded at 5 μg/ml for 700 seconds, 300 seconds for baseline recording and then IGP101 association and dissociation measured for 600 seconds each at multiple concentrations. Double reference sensors were employed in all testing to measure and subtract any observed background signal from nonspecific binding or system noise.
Analysis was performed with ForteBio Data Analysis Software (v8.2). After background subtraction, a 1:1 local kinetic model was fit to the observed association and dissociation curves. Overall KD, Kₒₙ, Koff, and R2 correlation coefficients were determined. Where possible, a global curve fit was also performed for multiple concentrations of the antibody/analyte.
For orientation: BLI is a label-free optical method that tracks binding on a fibre tip over time.

Where no end group is shown, it is not given here.

B1: IGP101 (antibody, V domains shown)
VH: EVQLVESGGGLVQPKGTLKLSCAASGFSFNTYAMNWVRQAPGKSLEWVARTLSKSNNYATYYADSVKDRFTISRDDSQSMLSLQMNNLKTEDTAMYYCVGAFAYWGQGTLVTVSA
VL: DIVMTQAAPSVPVTPGESVSISCRSSKSLLHSNGNTYLYWFLQRPGQSPQLLIYRMSNLASGVPDRFSGSGSGTAFTLRISRVEAEDVGVYYCMQHLEFPFTFGAGTKLELK
notes: Mouse monoclonal antibody from hybridoma ATCC PTA-9197; It was tested as whole mouse IgG, captured on anti-mouse IgG biosensors; The constant regions and isotype are not explicitly stated; a g2b constant region primer is mentioned only in illustrative cloning methods; also called IGP101 antibody; mouse monoclonal antibody IGP101
Turning to B1, the binding result was “no binding”.
